We go through 1 molecule from CN106117361A.

This assay addresses CD3 on Jurkat cells (Jurkat靶标细胞) (UniProt P07766). Put plainly: flow cytometry, culture supernatant on Jurkat cells.
UniProt P07766, sequence (P07766 23-207): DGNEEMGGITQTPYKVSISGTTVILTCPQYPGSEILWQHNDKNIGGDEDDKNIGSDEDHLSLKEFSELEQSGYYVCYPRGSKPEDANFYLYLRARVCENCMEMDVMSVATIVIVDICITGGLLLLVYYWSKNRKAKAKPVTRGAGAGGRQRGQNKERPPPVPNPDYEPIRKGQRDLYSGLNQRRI

B1: A30322 抗CD3单域抗体 (sdAb) (VHH, not shown: large carriers)
VHH: EVQLVECGGGLVQAGGSLRLSCAASGRTFDTMGWFRQAPGKEREFVAAVRWSSGNTYYGNTVKGRFTISRDTATNTVYLEMNSLKHEDTAVYYCAARLAGRGAADHWGQGTQVTVSS
For the molecule B1, the 结合MFI is 521 MFI.
